Patent US8076297B2, “Pharmaceutical composition containing polypeptide fragments of serralysins” (Centro De Ingenieria Genetica Y Biotecnologia, priority 2004, dated 2011)
Entries after “also recorded” stand apart in the source; their conditions may differ. Read-outs that look alike come from different tables or passages of the source.

Tests used:
HEp-2 cells = experiment: Anti-proliferative assay on HEp-2 cells, MTT method; type: cell-based, human
Experimental: For the characterization of the antiproliferative activity of MG2327 “in vitro” a panel of human cell lines was evaluated (table 1). A total of 2000 cells, except for PBMC (20000), were seeded in 96 wells culture wells, and different concentrations of MG2327 were added. After 72 hours, the number of survival cells was estimated by addition of MTT (Skehan, P., Storeng, R., Scudiero, D., Monks, A., Mcmahon, J., Vistica, D., Warren, J. T., Bokesch, H., Kenney, S. and BOYD, M. R. 1990. J Natl Cancer Inst. 82:1107). The soluble formazan products were detected at 540 nm in a multiscan plate reader.

P3X63Ag8 mieloide tumor = experiment: Regression of implanted P3X63Ag8 myeloid tumor; type: in vivo, BALB/c mice
Experimental: The p25 was them injected i.p. to mice BALB/c after of 8 days of implanted P3X63Ag8 mieloide tumor and perfectly development. The doses of 22 μg/kg of weigh of p25 induced total regression in the 80% of the animals treatment. the negative controls death in the end of 30 days, where already had development compact tumors.

casein = experiment: Proteolytic activity, modified Anson and Mirsky method; type: biochemical
Description: The modify method of Anson y Mirsky (Anson, M. L., Mirsky, A. E. 1932. J. Gen. Physiol. 16: 59) using casein as sustrate, was adjust in our laboratory with Tripsina (y=1.9314x-0.682; R^2=0.999). The proteic fraccions obtained in the chromatography describe in the Example 6 were assay with this method.

gelatine = experiment: Proteolytic activity, zymogram method; type: biochemical
Description: The method of the cimogeno using gelatine as sustrate (Vacca, A., Iurlaro, M., Ribatti, D., Minischetti, M., Nico, B., Ria, R., Pellegrino, A. and Dammacco, F. 1999. Blood. 94:4143-4155) was employed to verify the proteolytic activity of p50 and p25. Moreover was analized the enzymatic capacity of the degradation of p50.

[1] = test system: human microvasculature endothelial cells (HMEC); experiment: Formation of tubular structures in matrigel; type: cell-based; conditions: non-cytotoxic concentrations; activation with 10 ng/mL EGF, 1 μg/mL hydrocortisone
Description: Anti-angiogenic effect of MG2327 and anti-proliferative polypeptides fragments were evaluate by the method of formation of tubular structure in matrigel. Non citotoxic concentration of MG2327 and their fraction p25 y p50 were incubed with human microvasculature endothelial celulas (HMEC). The final result it evalued considering the tubular structure length formed and the number of interconexión between them. For this used Pro Express 4.5 Image-program.
Human micro-vasculature-derived human endotelial cells (HMEC) were assessed for endothelial cord formation on matrigel (Crum R, Szabo S, Folkman J. 1985. Science. 230:1375-8; Vacca, A., Ribatti, D., Presta, M., Minischettti, M., lurlaro, M, Ria, R, Albini, A, Bussolino, F. and Dammaacco, F. 1999. Blood 93:3064) after culture under non-cytotoxic MG2327 and p25 and p50 concentrations (Sanz, L., Pascual, M., Muñoz, A., González, M. A., Salvador C H, Álvarez-Vallina L. 2002. Microvascular Research 63:335-339). Results considered the length of tubular structures and the number of interconnections between them, as calculated by using the Image-Pro Express 4.5 package.

[2] = test system: murine mieloma P3X63Ag8 cells; experiment: Apoptosis: DNA laddering and electron microscopy; type: cell-based
Experimental: For determining the kind of tumoral cell death, murine mieloma P3X63Ag8 cells (2*10^7) were treated in vitro with MG2327 at 22 μg/mL. Treated and untreated cells were prepared for ultrastructural transmission electron microscopy studies at different times, and genomic DNA was extracted for DNA laddering assay.
DNA fragmentation was assessed by 2% agarose gel electrophoresis. Apoptosis frequently involves cellular DNA laddering of 180-200 bp, representative of inter-nucleosomal distances (Soldatenkov, V. A., Prasad, S., Voloshin, Y., and Dritschilo, A. 1998. Cell Death Differ. 5:307-12).

B1: p25: 25 kDa non-proteolytic C-terminal fragment of serralysin PRZN_SERMA/PRZN_SERSP, degradation product of p50 (protein)
chain: SYWSETNTGGDNGGHYAAAPLLDDIAAIQHLYGANPSTRTGDTVYGFNSNTGRDFLSTTSNSQKVIFAAWDAGGNDTFDFSGYTANQRINLNEKSFSDVGGLKGNVSIAAGVTIENAIGGSGNDVIVGNAANNVLKGGAGNDVLFGGGGADELWGGAGKDIFVFSAASDSAPGASDWIRDFQKGIDKIDLSFFNKEANSSDFIHFVDHFSGTAGEALLSYNASSNVTDLSVNIGGHQAPDFLVKIVGQVDVATDFIV
HEp-2 cells; 18 μg/mL
  inhibition of the growing of the tumor cells: 100%
HEp-2 cells; 9 and 18 μg/mL
  activity of 25 kDa fraction compared with 50 kDa fraction: most active
HEp-2 cells; doses of 2.5, 4.5 and 9 μg/mL
  activity of 25 kDa component compared with MG2327: showed major biologic activity
HEp-2 cells; fractions recovered from SDS gels and renaturalized, p50 with Zn4SO2 5 μM added, read-out: IC50 (FIG. 2)
  IC50: 350 pM
HEp-2 cells; fractions recovered from SDS gels, p50 incubated with 5 μM Zn2SO4, read-out: IC50 of the fractions p25 and p50
  IC50: 480 pM
HEp-2 cells; gel-recovered fractions, no zinc added (incubated with EDTA)
  antiproliferative activity: dosis-dependiente potent anti-proliferative activity; also recorded: strong antiproliferative dose dependent activity
HEp-2 cells; proteins purified by DEAE chromatography
  anti-proliferative effect: showed anti-proliferative effect on HEp.2
P3X63Ag8 mieloide tumor; 22 μg/kg i.p., 8 days after tumor implant
  animals with total regression: 80%
P3X63Ag8 mieloide tumor; mouse, in vivo
  tumor regression: induce total regression
casein
  proteolytic (enzymatic) activity: no showed enzymatic activity; also recorded: non present enzymatic activity; also recorded: do not present activity
gelatine
  proteolytic activity: no showed this activity
[1]
  differentiation of endothelial cells / tubular net formation: significant inhibition; also recorded: index of net formation inferior to that observed for MG2327 and p50
[2]
  ultrastructural changes (electron microscopy): chromatin condensing, damaged mitrocondria cristae and clustered mitocondria were detected
